Bridges are numbered along the chain shown (N, C = ends). Where no end group is shown, it is not given here. [ ]: non-standard residue; d: D form. Aib = CC(C)(N)C(=O)O
Assays:
Assay in all cases: cell-based or functional assay
human GIP receptor = target: T1, human GIP receptor (human, UniProt P48546 22-466)
T1 sequence (looked up): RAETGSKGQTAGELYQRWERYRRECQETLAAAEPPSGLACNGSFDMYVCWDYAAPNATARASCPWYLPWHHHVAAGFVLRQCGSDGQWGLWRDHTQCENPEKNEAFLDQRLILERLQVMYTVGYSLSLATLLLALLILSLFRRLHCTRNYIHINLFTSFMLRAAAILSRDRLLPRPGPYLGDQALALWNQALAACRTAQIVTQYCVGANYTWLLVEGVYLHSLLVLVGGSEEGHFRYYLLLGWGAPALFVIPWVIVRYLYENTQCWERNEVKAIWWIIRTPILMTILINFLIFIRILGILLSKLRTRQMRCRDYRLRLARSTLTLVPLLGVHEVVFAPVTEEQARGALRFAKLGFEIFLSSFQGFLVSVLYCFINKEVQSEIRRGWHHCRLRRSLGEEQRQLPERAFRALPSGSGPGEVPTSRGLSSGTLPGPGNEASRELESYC

human GCG receptor = human GCG receptor (human, UniProt P47871 26-477)
Chain of human GCG receptor (P47871 26-477): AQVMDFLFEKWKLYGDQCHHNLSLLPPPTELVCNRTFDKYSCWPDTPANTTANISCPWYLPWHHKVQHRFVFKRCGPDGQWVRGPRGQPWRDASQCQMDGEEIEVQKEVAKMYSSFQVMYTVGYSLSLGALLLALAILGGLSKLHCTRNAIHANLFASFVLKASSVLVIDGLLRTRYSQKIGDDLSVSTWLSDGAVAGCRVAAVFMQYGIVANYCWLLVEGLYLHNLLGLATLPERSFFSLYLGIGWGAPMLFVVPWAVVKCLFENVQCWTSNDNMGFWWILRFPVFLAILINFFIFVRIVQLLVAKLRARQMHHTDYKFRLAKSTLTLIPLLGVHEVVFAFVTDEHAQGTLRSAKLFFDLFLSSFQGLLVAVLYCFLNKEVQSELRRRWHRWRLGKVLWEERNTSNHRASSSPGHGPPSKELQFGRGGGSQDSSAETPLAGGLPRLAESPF

human GLP-1 receptor = human GLP-1 receptor (human, UniProt P43220 24-463)

H[Aib]QGTFTSDYSKYLDEKAQKEFVQWLLDTC (bridge 16-20) [triple agonist of SEQ ID NO: 30]
In vitro activity (%) vs. GIP, cAMP EC50 (human GIP receptor): 0.8%
In vitro activity (%) vs. Glucagon, cAMP EC50 (human GCG receptor): 0.7%
In vitro activity (%) vs. GLP-1, cAMP EC50 (human GLP-1 receptor): 142%

H[Aib]QGTFTSDYSKYLDEKACKEFVQWLLAQ (bridge 16-20) [triple agonist of SEQ ID NO: 31]
In vitro activity (%) vs. GIP, cAMP EC50 (human GIP receptor): 2.4%
In vitro activity (%) vs. Glucagon, cAMP EC50 (human GCG receptor): 2.2%
In vitro activity (%) vs. GLP-1, cAMP EC50 (human GLP-1 receptor): 135%

H[Aib]QGTFTSDYSKYLDEKRAQEFVCWLLAQKGKKNDWKHNIT [triple agonist of SEQ ID NO: 28]
In vitro activity (%) vs. GIP, cAMP EC50 (human GIP receptor): < 0.1%
In vitro activity (%) vs. Glucagon, cAMP EC50 (human GCG receptor): 1.6%
In vitro activity (%) vs. GLP-1, cAMP EC50 (human GLP-1 receptor): 17.2%

H[Aib]QGTFTSDYSIAMDEIHQKDFVNWLLAQKC (bridge 16-20) [triple agonist of SEQ ID NO: 33]
In vitro activity (%) vs. GIP, cAMP EC50 (human GIP receptor): 10.4%
In vitro activity (%) vs. Glucagon, cAMP EC50 (human GCG receptor): < 0.1%
In vitro activity (%) vs. GLP-1, cAMP EC50 (human GLP-1 receptor): 24.5%

H[Aib]QGTFTSDYSKYLDEKAAKEFVQWLLNTC (bridge 16-20) [triple agonist of SEQ ID NO: 29]
In vitro activity (%) vs. GIP, cAMP EC50 (human GIP receptor): < 0.1%
In vitro activity (%) vs. Glucagon, cAMP EC50 (human GCG receptor): 6%
In vitro activity (%) vs. GLP-1, cAMP EC50 (human GLP-1 receptor): 38.5%
